{
  "source": "paper PMC7954600",
  "binders": {"B1": {"name": "DNAJC30 (natural protein)", "chain": "SQGDCSYSRTALYDLLGVPSTATQAQIKAAYYRQCFLYHPDRNSGSAEAAERFTRISQAYVVLGSATLRRKYDRGLLSDEDLRGPGVRPSRTPAPDPGSPRTPPPTSRTHDGSRASPGANRTMFNFDAFYQAHYGEQLERERRLRARREALRKRQEYRSMKGLRWEDTRDTAAIFLIFSIFIIIGFYI"}},
  "molecular_target": "complex I-containing supercomplex (human (endogenous in fibroblasts and HEK293)) (UniProt P56181)",
  "sequence (P56181 whole entry, looked up, one chain of several)": "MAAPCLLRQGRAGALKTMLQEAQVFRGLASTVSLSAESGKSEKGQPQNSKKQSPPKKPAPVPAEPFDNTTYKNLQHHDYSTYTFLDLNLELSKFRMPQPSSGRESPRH",
  "test": "complexome profiling (blue native electrophoresis with mass spectrometry); mitochondria-enriched membranes of control fibroblast and control HEK293 cells, solubilised with detergent (digitonin for supercomplexes), 3% to 18% acrylamide blue native gel, gel bands or slices read by quantitative mass spectrometry; co-migration",
  "data": [
    {"binder": "B1", "values": [
      {"measurement": "ratio DNAJC30/complex I in the supercomplex (DNAJC30/complex I)", "value": 0.005}
    ]}
  ]
}
